According to PMC9091212:

Target: TGFβRII (UniProt P37173)
Test: anti-FLAG IP, TGFβRII western blot
Conditions: reference: wild-type TGFβRI-FLAG; sites Y182

## TGFβRI (from UniProt P36897) Y182F
  binding against the reference: weaker
